Substrate in series [1]: CC(C)[C@H](NC(=O)[C@H](Cc1ccccc1)NC(=O)C=Cc1ccco1)C(=O)O
As to the kind of experiment: purified protein, by the assay type. The conditions noted are these: other: hydrolysis of FA-Phe-Val-OH.

Substrate in series [2]: CC(C)C[C@H](NC(=O)[C@H](Cc1ccccc1)NC(=O)OCc1ccccc1)C(=O)O
As to the kind of experiment: Hydrolysis of CBZ-X-Leu-OH substrates. Format: biochemical, yeast. The conditions noted are these: other: Table X, hydrolysis at 25° C., 10 mM sodium phosphate pH 6.5. The protocol: (§1) Over-expression of selected mutant enzymes was performed according to Nielsen et al. (1990) cited supra. The mutant BamHI-BamHI PRC1 fragments of pYSP32 were inserted into the GAL expression vector pRA21 and introduced into yeast strain K2579LLR. The plasmid pRA21 is derived from p72UG (Nielsen et al. (1990) cited supra) by replacing the 918 bp BglII-SalI fragment with the 638 bp BglII-PvuII fragment of pWI3, thereby deleting the BamHI site downstream of the PRC1 gene. Mutant forms of CPD-Y were purified from culture supernatants by affinity chromatography as described in Example 1. Kinetic parameters were determined by measuring rates of hydrolysis at 25° C. of CBZ-X-Leu-OH substrates spectrophotometrically at 224 nm in 10 mM sodium phosphate buffer pH 6.5. The concentrations of substrates ranged from 0.01 to 0.5 mM. Accurate measurements were not possible with substrate concentrations exceeding 0.5 mM due to the high absorption of the substrate.

Substrate in series [3]: CC(C)C[C@H](NC(=O)[C@H](C)NC(=O)OCc1ccccc1)C(=O)O
As to the kind of experiment: Hydrolysis of CBZ-X-Leu-OH substrates. In kind it is biochemical, yeast. Particulars: other: Table X, hydrolysis at 25° C., 10 mM sodium phosphate pH 6.5. The protocol: as §1

Substrate in series [4]: CC(C)C[C@H](NC(=O)[C@H](CCCCN)NC(=O)OCc1ccccc1)C(=O)O
As to the kind of experiment: Hydrolysis of CBZ-X-Leu-OH substrates. In kind it is biochemical, yeast. Particulars: other: Table X and text, hydrolysis at 25° C., 10 mM sodium phosphate pH 6.5. The protocol: as §1

Substrate in series [5]: CC(C)C[C@H](NC(=O)[C@H](CO)NC(=O)OCc1ccccc1)C(=O)O
As to the kind of experiment: Hydrolysis of CBZ-X-Leu-OH substrates. In kind it is biochemical, yeast. Particulars: other: Table X, hydrolysis at 25° C., 10 mM sodium phosphate pH 6.5. The protocol:
as §1

Substrate in series [6]: CC(C)C[C@H](NC(=O)[C@H](CCC(=O)O)NC(=O)OCc1ccccc1)C(=O)O
As to the kind of experiment: Hydrolysis of CBZ-X-Leu-OH substrates. The conditions noted are these: other: Table X and text, hydrolysis at 25° C., 10 mM sodium phosphate pH 6.5. In kind it is biochemical, yeast. The protocol:
as §1

B1: yeast carboxypeptidase Y (CPD-Y), wild type (SEQ ID NO:32) (Saccharomyces cerevisiae S288C) (protein)
chain: KIKDPKILGIDPNVTQYTGYLDVEDEDKHFFFWTFESRNDPAKDPVILWLNGGPGCSSLTGLFFELGPSSIGPDLKPIGNPYSWNSNATVIFLDQPVNVGFSYSGSSGVSNTVAAGKDVYNFLELFFDQFPEYVNKGQDFHIAGESYAGHYIPVFASEILSHKDRNFNLTSVLIGNGLTDPLTQYNYYEPMACGEGGEPSVLPSEECSAMEDSLERCLGLIESCYDSQSVWSCVPATIYCNNAQLAPYQRTGRNVYDIRKDCEGGNLCYPTLQDIDDYLNQDYVKEAVGAEVDHYESCNFDINRNFLFAGDWMKPYHTAVTDLLNQDLPILVYAGDKDFICNWLGNKAWTDVLPWKYDEEFASQKVRNWTASITDEVAGEVKSYKHFTYLRVFNGGHMVPFDVPENALSMVNEWIHGGFSL
notes: purchased Carlbiotech, Copenhagen, Denmark
For orientation: Km means the substrate concentration at which the rate is half of its maximum. In general, kcat/Km refers to the second-order rate constant that governs catalysis at low substrate concentration. With B1, the Km came out at 47 µM in series [1], 36 µM in series [2], 700 µM in series [3] and 70 µM in series [5]. Further, the values for the kcat in series [2], in series [3] and in series [5] were 13600 mM/min/mM, 25000 mM/min/mM and 800 mM/min/mM, respectively. The kcat/Km in series [2] is 380,000 min^-1 mM^-1; in series [3] it was 36,000 min^-1 mM^-1; in series [4], 400 M⁻¹ s⁻¹; in series [5], 12,000 min^-1 mM^-1; in series [6], 7330 M⁻¹ s⁻¹.

For the origin of these results see patent US5945329A, “Customized proteases” (Carlsberg A/S, priority 1997, dated 1999).
